This data set deals with T1, His-Lmo2795 (RpiR family regulator) (UniProt Q8Y3P0).
T1 sequence: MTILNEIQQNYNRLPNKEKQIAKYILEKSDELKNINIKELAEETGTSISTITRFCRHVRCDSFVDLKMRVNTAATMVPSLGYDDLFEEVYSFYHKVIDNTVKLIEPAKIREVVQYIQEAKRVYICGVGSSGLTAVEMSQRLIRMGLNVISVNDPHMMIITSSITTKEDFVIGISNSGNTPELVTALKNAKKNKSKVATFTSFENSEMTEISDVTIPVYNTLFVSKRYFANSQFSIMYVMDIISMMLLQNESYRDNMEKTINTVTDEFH
In words: EMSA. A general note: In EMSA bound probe runs differently from free probe, usually more slowly.

Turning to “CGGAACACCCAACAAATTACCAATCGAATAAACTAACAAAGTCCTTTCAAGCGAAAGGACTTTTTATTTTTAACAGCAACGTCATTTTTTAAAGCTAGTTTCCGCAACTATCCACGCTAAAACATGAAAATCATTTTCATTTAATTGATATTGATAAAATCATTTTCTTATGATATAGTCTGTTTGAAAACGCATACTTTACACTGAAACACAGTATAGAGGAGGAGTATCAGTGGGCAATTCTGTTATGGAAAAAATCAAAGGTGGGTTAG (double strand) [lmo2795-nanE upstream (promoter) fragment]”, the binding result was “binds”.

The values are drawn from paper doi:10.1101/2023.02.21.529469.
